Assays:
integrin αL chain = integrin αL chain (UniProt P20701); assay: SPR; Biacore 3000, 25°C; integrin αL amine-coupled to CM5 (~500 RU), soluble VWF or VWF-A2 flowed over at 30 μL/min in TBSTG (25 mM Tris pH 7.5, 150 mM NaCl, 0.05% Tween, 2% glycerol); apparent
[1] = target: T1, factor VIII‐free Von Willebrand factor (human, UniProt P04275 764-2813); assay: SPR; Biacore 3000, 25°C; factor VIII-free VWF amine-coupled to CM5 (~3000 RU after TCEP), αL flowed over at 30 μL/min in TBSTG (25 mM Tris pH 7.5, 150 mM NaCl, 0.05% Tween, 2% glycerol); two-state binding model; apparent; details: both partners purified
T1 construct: Von Willebrand factor, human, factor VIII-free; multimeric; molar concentration counted with a monomeric MW of 260 kDa; Multimeric protein; On the SPR chip it was treated with 10 mM TCEP after coupling; also called VWF; recombinant human factor VIII‐free VWF; source: bought: Haematologic Technologies / Prolytix, catalogue HCVWF‐0191

Row | Molecule | Kd (integrin αL chain) | ka1 (integrin αL chain) | kd1 (integrin αL chain) | Kd [1]
1 | recombinant VWF‐A2 protein (domain or fragment) | 94 nM | 140000 M⁻¹ s⁻¹ | 0.013 s⁻¹ | 
2 | integrin αL chain (receptor, UniProt P20701 26-1090, looked up, integrin αL chain (CD11a), recombinant, Origene TP321297; αL chain alone, without β2, in the SPR experiments; In the functional rows this molecule stands for αLβ2 on Jurkat cells; also called aL; CD11a; source: bought: Origene, catalogue TP321297) YNLDVRGARSFSPPRAGRHFGYRVLQVGNGVIVGAPGEGNSTGSLYQCQSGTGHCLPVTLRGSNYTSKYLGMTLATDPTDGSILACDPGLSRTCDQNTYLSGLCYLFRQNLQGPMLQGRPGFQECIKGNVDLVFLFDGSMSLQPDEFQKILDFMKDVMKKLSNTSYQFAAVQFSTSYKTEFDFSDYVKRKDPDALLKHVKHMLLLTNTFGAINYVATEVFREELGARPDATKVLIIITDGEATDSGNIDAAKDIIRYIIGIGKHFQTKESQETLHKFASKPASEFVKILDTFEKLKDLFTELQKKIYVIEGTSKQDLTSFNMELSSSGISADLSRGHAVVGAVGAKDWAGGFLDLKADLQDDTFIGNEPLTPEVRAGYLGYTVTWLPSRQKTSLLASGAPRYQHMGRVLLFQEPQGGGHWSQVQTIHGTQIGSYFGGELCGVDVDQDGETELLLIGAPLFYGEQRGGRVFIYQRRQLGFEEVSELQGDPGYPLGRFGEAITALTDINGDGLVDVAVGAPLEEQGAVYIFNGRHGGLSPQPSQRIEGTQVLSGIQWFGRSIHGVKDLEGDGLADVAVGAESQMIVLSSRPVVDMVTLMSFSPAEIPVHEVECSYSTSNKMKEGVNITICFQIKSLIPQFQGRLVANLTYTLQLDGHRTRRRGLFPGGRHELRRNIAVTTSMSCTDFSFHFPVCVQDLISPINVSLNFSLWEEEGTPRDQRAQGKDIPPILRPSLHSETWEIPFEKNCGEDKKCEANLRVSFSPARSRALRLTAFASLSVELSLSNLEEDAYWVQLDLHFPPGLSFRKVEMLKPHSQIPVSCEELPEESRLLSRALSCNVSSPIFKAGHSVALQMMFNTLVNSSWGDSVELHANVTCNNEDSDLLEDNSATTIIPILYPINILIQDQEDSTLYVSFTPKGPKIHQVKHMYQVRIQPSIHDHNIPTLEAVVGVPQPPSEGPITHQWSVQMEPPVPCHYEDLERLPDAAEPCLPGALFRCPVVFRQEILVQVIGTLELVGEIEASSMFSLCSSLSISFNSSKHFHLYGSNASLAQVVMKVDVVYEKQML |  |  |  | 120 nM

— PMC11222974, “The effect of ADAMTS13 on graft‐versus‐host disease” (Journal of Cellular and Molecular Medicine, 2024)
